Key:
[1] = substrate: Cc1ccccc1C1=C2C=CC(=N)C=C2[Si](C)(C)c2cc(NC(=O)[C@H](CC(=O)O)NC(=O)[C@@H](NC(=O)[C@H](CCC(=O)O)NC(=O)[C@H](CC(=O)O)NC(=O)OCc3ccccc3)C(C)C)ccc21; test: Ratio of Kcat to Km for caspase3 by FRET assay
[2] = substrate: Cc1ccccc1C1=C2C=CC(=N)C=C2[Si](C)(C)c2cc(NC(=O)[C@H](CC(=O)O)NC(=O)[C@@H](NC(=O)[C@H](CCC(=O)O)NC(=O)[C@H](CC(=O)O)NC(=O)OCc3ccccc3)C(C)C)ccc21; test: Activity of caspase3 after 10 hrs by FRET assay

B1: Caspase-3 (Homo sapiens), P42574 (protein)
chain: MENTENSVDSKSIKNLEPKIIHGSESMDSGISLDNSYKMDYPEMGLCIIINNKNFHKSTGMTSRSGTDVDAANLRETFRNLKYEVRNKNDLTREEIVELMRDVSKEDHSKRSSFVCVLLSHGEEGIIFGTNGPVDLKKITNFFRGDRCRSLTGKPKLFIIQACRGTELDCGIETDSGVDDDMACHKIPVEADFLYAYSTAPGYYSWRNSKDGSWFIQSLCAMLKQYADKLEFMHILTRVNRKVATEFESFSFDATFHAKKQIPCIVSMLTKELYFYH
B1 showed a kcat/Km [1] of 3.1 ×10⁶ /M/s, a Km [2] of 1.2 µM and a Vmax [2] of 6.8 ×10⁻⁸ M/s.

From ChEMBL document CHEMBL2029331, “Red fluorescent scaffold for highly sensitive protease activity probes” (Bioorg Med Chem Lett, 2012)
